US20190276511A1 (BIONTECH RNA PHARMACEUTICALS, published 2019)
Blank lines part the entries; values can stand above or below the binder they belong to.

Experiments:
[1] = molecular target: CD40 receptor on cells (human, UniProt P25942 21-277); experiment: cell-based or functional assay
[2] = molecular target: T1, 4-1BB-Fc (human, UniProt Q07011 24-186); experiment: ELISA, coated receptor-Fc
T1 construct: extracellular domain; hinge included for covalent assembly; also called 4-1BB receptor-Fc fusion protein; not shown: human Fc gamma 1 region including the hinge region

[3] = molecular target: T2, CD40-Fc (human, UniProt P25942 21-193); experiment: ELISA, coated receptor-Fc
T2 construct: extracellular domain; hinge included for covalent assembly; also called CD40 receptor-Fc fusion protein; not shown: human Fc gamma 1 region including the hinge region
T2 sequence (P25942 21-193 limits assumed): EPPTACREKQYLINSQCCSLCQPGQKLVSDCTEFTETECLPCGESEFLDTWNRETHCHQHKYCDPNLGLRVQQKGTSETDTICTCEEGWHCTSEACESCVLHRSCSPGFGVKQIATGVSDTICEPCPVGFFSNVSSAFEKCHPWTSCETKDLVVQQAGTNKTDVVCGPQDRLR
Method: (§1) Receptor binding of the EHD2-scDuokines was analyzed by ELISA using fusion proteins of the extracellular region of CD40, CD27 and 4-1BB, respectively, with the human Fcγ1 region including the hinge region for covalent assembly (CD40-Fc, CD27-Fc, 4-1BB-Fc). Receptor-Fc fusion proteins (200 ng/well) were coated overnight at 4° C. and remaining binding sites were blocked with PBS, 2% skimmed milk powder (2% MPBS).

[4] = molecular target: T3, CD27-Fc (human, UniProt P26842 20-191); experiment: ELISA, coated receptor-Fc
T3 construct: extracellular domain; hinge included for covalent assembly; also called CD27 receptor-Fc fusion protein; not shown: human Fc gamma 1 region including the hinge region
T3 sequence (looked up): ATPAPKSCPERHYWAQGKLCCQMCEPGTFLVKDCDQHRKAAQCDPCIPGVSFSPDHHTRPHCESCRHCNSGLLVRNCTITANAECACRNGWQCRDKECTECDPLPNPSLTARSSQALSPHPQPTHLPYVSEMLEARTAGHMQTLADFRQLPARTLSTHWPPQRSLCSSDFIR
Method: as §1

[5] = molecular target: T2, CD40-Fc; experiment: ELISA, coated receptor-Fc; remark: listed apart in the source
[6] = molecular target: T3, CD27-Fc; experiment: ELISA, coated receptor-Fc; remark: listed apart in the source
[7] = molecular target: T4, OX40 receptor on cells (human, UniProt P43489 29-277); experiment: cell-based or functional assay
T4 sequence (looked up): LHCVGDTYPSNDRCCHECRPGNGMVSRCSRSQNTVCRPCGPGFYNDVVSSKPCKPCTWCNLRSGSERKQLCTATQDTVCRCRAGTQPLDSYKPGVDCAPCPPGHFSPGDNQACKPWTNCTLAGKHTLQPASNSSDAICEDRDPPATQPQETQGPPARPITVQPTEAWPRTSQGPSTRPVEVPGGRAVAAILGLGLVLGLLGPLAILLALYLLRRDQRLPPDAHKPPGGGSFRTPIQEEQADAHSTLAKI

[8] = molecular target: 4-1BB receptor on cells (human, UniProt Q07011 24-255); experiment: cell-based or functional assay
Chain of 4-1BB receptor on cells (Q07011 24-255): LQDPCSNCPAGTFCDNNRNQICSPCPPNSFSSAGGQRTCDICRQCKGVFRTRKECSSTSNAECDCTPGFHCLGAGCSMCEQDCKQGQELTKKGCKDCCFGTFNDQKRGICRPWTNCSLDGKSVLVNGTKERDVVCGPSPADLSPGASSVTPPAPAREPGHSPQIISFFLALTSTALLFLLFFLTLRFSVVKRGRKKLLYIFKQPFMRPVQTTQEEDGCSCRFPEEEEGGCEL

[9] = molecular target: T1, 4-1BB-Fc; experiment: ELISA, coated receptor-Fc; remark: listed apart in the source
[10] = molecular target: T5, OX40-Fc (human, UniProt P43489 29-214); experiment: ELISA, coated receptor-Fc
T5 construct: extracellular domain; hinge included for covalent assembly; also called OX40 receptor-Fc fusion protein; not shown: human Fc gamma 1 region including the hinge region
T5 sequence (looked up): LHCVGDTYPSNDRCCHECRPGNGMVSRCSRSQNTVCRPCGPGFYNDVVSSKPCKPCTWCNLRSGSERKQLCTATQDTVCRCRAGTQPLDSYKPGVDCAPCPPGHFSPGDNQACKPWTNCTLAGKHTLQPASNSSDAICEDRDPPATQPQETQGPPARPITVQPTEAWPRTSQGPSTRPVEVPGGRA

Chain of CD40 receptor on cells (P25942 21-277): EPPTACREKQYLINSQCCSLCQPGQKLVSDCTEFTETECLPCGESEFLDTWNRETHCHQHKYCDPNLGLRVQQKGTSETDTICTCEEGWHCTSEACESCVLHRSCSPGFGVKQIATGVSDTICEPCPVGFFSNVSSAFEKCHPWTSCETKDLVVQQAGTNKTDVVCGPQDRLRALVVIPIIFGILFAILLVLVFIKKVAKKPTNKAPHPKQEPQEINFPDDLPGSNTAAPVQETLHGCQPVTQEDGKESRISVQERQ

Receptor activation (EC50, nM), IL-8 release from HT1080 cells [1]: 2 nM
binding result [2]: no binding (tested: 100 nM (FIG. 16))
EC50 [3]: 4.05 nM
EC50 [4]: 2.03 nM
B1: scCD40L-EHD2-scCD27L (ligand)
chain: GDQNPQIAAHVISEASSKTTSVLQWAEKGYYTMSNNLVTLENGKQLTVKRQGLYYIYAQVTFCSNREASSQAPFIASLCLKSPGRFERILLRAANTHSSAKPCGQQSIHLGGVFELQPGASVFVNVTDPSQVSHGTGFTSFGLLKLGGGSGGGGDQNPQIAAHVISEASSKTTSVLQWAEKGYYTMSNNLVTLENGKQLTVKRQGLYYIYAQVTFCSNREASSQAPFIASLCLKSPGRFERILLRAANTHSSAKPCGQQSIHLGGVFELQPGASVFVNVTDPSQVSHGTGFTSFGLLKLGGGSGGGGDQNPQIAAHVISEASSKTTSVLQWAEKGYYTMSNNLVTLENGKQLTVKRQGLYYIYAQVTFCSNREASSQAPFIASLCLKSPGRFERILLRAANTHSSAKPCGQQSIHLGGVFELQPGASVFVNVTDPSQVSHGTGFTSFGLLKLGGSGGDFTPPTVKILQSSCDGGGHFPPTIQLLCLVSGYTPGTINITWLEDGQVMDVDLSTASTTQEGELASTQSELTLSQKHWLSDRTYTCQVTYQGHTFEDSTKKCADSNGGSGGSLGWDVAELQLNHTGPQQDPRLYWQGGPALGRSFLHGPELDKGQLRIHRDGIYMVHIQVTLAICSSTTASRHHPTTLAVGICSPASRSISLLRLSFHQGCTIASQRLTPLARGDTLCTNLTGTLLPSRNTDETFFGVQWVRPGGGSGGGSLGWDVAELQLNHTGPQQDPRLYWQGGPALGRSFLHGPELDKGQLRIHRDGIYMVHIQVTLAICSSTTASRHHPTTLAVGICSPASRSISLLRLSFHQGCTIASQRLTPLARGDTLCTNLTGTLLPSRNTDETFFGVQWVRPGGGSGGGSLGWDVAELQLNHTGPQQDPRLYWQGGPALGRSFLHGPELDKGQLRIHRDGIYMVHIQVTLAICSSTTASRHHPTTLAVGICSPASRSISLLRLSFHQGCTIASQRLTPLARGDTLCTNLTGTLLPSRNTDETFFGVQWVRP
notes: From HEK293; Ig kappa leader left out; dimer through EHD2, about 50% covalently linked, SEC major peak at monomer size; also called EHD2-scDuokine scCD40L-EHD2-scCD27L; not shown: N-terminal FLAG tag

binding result [5]: no binding (tested: 100 nM (FIG. 10))
binding result [6]: no binding (tested: 100 nM (FIG. 10))
Receptor activation (EC50, nM) [7]: 0.56 nM
Receptor activation (EC50, nM) [8]: 2.83 nM
EC50 [9]: 4.61 nM
EC50 [10]: 347 nM
B2: scOX40L-sc4-1BBL (ligand)
chain: QVSHRYPRIQSIKVQFTEYKKEKGFILTSQKEDEIMKVQNNSVIINCDGFYLISLKGYFSQEVNISLHYQKDEEPLFQLKKVRSVNSLMVASLTYKDKVYLNVTTDNTSLDDFHVNGGELILIHQNPGEFCVLGGGSGGGQVSHRYPRIQSIKVQFTEYKKEKGFILTSQKEDEIMKVQNNSVIINCDGFYLISLKGYFSQEVNISLHYQKDEEPLFQLKKVRSVNSLMVASLTYKDKVYLNVTTDNTSLDDFHVNGGELILIHQNPGEFCVLGGGSGGGQVSHRYPRIQSIKVQFTEYKKEKGFILTSQKEDEIMKVQNNSVIINCDGFYLISLKGYFSQEVNISLHYQKDEEPLFQLKKVRSVNSLMVASLTYKDKVYLNVTTDNTSLDDFHVNGGELILIHQNPGEFCVLGGGGSGGGTGGGGSREGPELSPDDPAGLLDLRQGMFAQLVAQNVLLIDGPLSWYSDPGLAGVSLTGGLSYKEDTKELVVAKAGVYYVFFQLELRRVVAGEGSGSVSLALHLQPLRSAAGAAALALTVDLPPASSEARNSAFGFQGRLLHLSAGQRLGVHLHTEARARHAWQLTQGATVLGLFRVTPEIPAGLPSPRSEGGGGSGGGGSGGGGSREGPELSPDDPAGLLDLRQGMFAQLVAQNVLLIDGPLSWYSDPGLAGVSLTGGLSYKEDTKELVVAKAGVYYVFFQLELRRVVAGEGSGSVSLALHLQPLRSAAGAAALALTVDLPPASSEARNSAFGFQGRLLHLSAGQRLGVHLHTEARARHAWQLTQGATVLGLFRVTPEIPAGLPSPRSEGGGGSGGGGSGGGGSREGPELSPDDPAGLLDLRQGMFAQLVAQNVLLIDGPLSWYSDPGLAGVSLTGGLSYKEDTKELVVAKAGVYYVFFQLELRRVVAGEGSGSVSLALHLQPLRSAAGAAALALTVDLPPASSEARNSAFGFQGRLLHLSAGQRLGVHLHTEARARHAWQLTQGATVLGLFRVTPEIPAGLPSPRSE
notes: scDuokine from HEK293; VH leader left out; also called single-chain Duokine scOX40L-sc4-1BBL; not shown: N-terminal FLAG tag
